Measurements reported in the supplement of paper PMC12042874.
± gives the uncertainty stated by the source.

Assay: amyloid nucleation score (Sup35N fusion, yeast selection) (log enrichment); library NNK3; higher = more nucleation; inactive = no reads after selection
Method in brief: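 Psi-negative yeast expressed Sup35N fused to peptides of 20 random codons. They were induced 24 hours with 100 μM copper sulfate, grown 7 days at 30°C without adenine and uracil, and their plasmid inserts from input and output were Illumina-sequenced. The nucleation score is the DiMSum log enrichment of output over input reads, centred on the mode score of non-aggregating sequences. Sequences with under 100 input reads were excluded.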

Amyloid nucleation score, 1.29 ± 0.094:
KLYYIVRCEFCRDCKMAWGN

Amyloid nucleation score, 0.136 ± 0.66:
KGYGCFTGMYSENARMMVIS

Amyloid nucleation score, 0.872 ± 0.11:
KSLSIRFYWVSPWTVVWDSR

Amyloid nucleation score, 3.27 ± 0.059:
LFLLNVAYCNCFT

Amyloid nucleation score, -0.32 ± 0.84:
KWASFLFYFDVMSYSARELN

Amyloid nucleation score, 2.88 ± 0.052:
KFSLCSVACFNK

Amyloid nucleation score, 0.58 ± 0.17:
KEVTSLVLIVFT

Amyloid nucleation score, inactive:
KEDKPESTDYNVNT, KFADQALTHSQYATFLTGLY, KFCASSCWMNYSVFGMYLSI, KFCVVSKTLFNFLTFWFEHG, KFLITETGSEL, KFMCSNAF, KFPFSGPSRMTRRVMQRALL, KFSMMYLRYFVWFLRLIMAS, KFSYNVQLRVAWYVSGGSGT, KFYDHTLCFVDWRDFSW, KGFTDWFWCFTPVVEWKSIT, KGKITCM, KGRFVLLDTTAQLNI, KGVGFPVCTSNG, KGVRCANNVLRKQRLENNNF, KICGNRPGVSRYLVGLDVMC, KIHRAGDYWVMSNR, KIIRMF, KIMCGGTVSERETRTLHQSG, KINLLSCLPVLRYYWISSLA, KINVD, KKFLAPCSRCWPKMDITRLN, KKPPHRLTVLMTGIAM, KKSHCRTIYKSLV, KLCTVINRLYLHRGGNSNSQ, KLDSLPEYFSATLWLDMSVF, KLEMYVARSCDCAYDRCWGR, KLLSMGVSTKRRT, KLNGFPWRPAWHEVMAGWVW, KMDLFVRIVSCLVNGCQTTG, KNFSFKATDWIVKSSVARCR, KNIPFYIGWVEVSTAGARYP, KNTSIK, KNYCGKNEYVLCTD, KPPGLNRHYTSCDMLSWALN, KPSSFNDAIR, KPVYYQCLENISSFEC, KQCGTIG, KQGVILTNRVYAFALGSSTH, KQLHLMLIVQIVATKTVNAP, KQVKMGVA, KREECILWLPLGNLLYNVLR, KRLLVKVLLDVIGAYRDSSC, KRMWKGE, KRVDYCFMIGVMTCVNHPTE, KRVLEGRFITVSM, KSDVS, KSNVLP, KSSTNMEMRMSHLGLLIGEV, KSTRF, KSVKARYSDSSMW, KSYFANSG, KSYLVFDPWGPAKSLFYTDM, KSYMYILKWAVLVLCSRSGL, KSYSAWSTVRDSKPTVLGN, KSYWCNVGAIENT, KTKGICSSMLVFC, KTLVRNMDNKPCRFSLTSNF, KTNRFHIDFAIDTPRLSLFL, KTYEETSDTYYFQVLFTNPI, KVCVIVVLLHTTRCQKFYQY, KVNTLRVEDIWTSQAFVCMV, KVVMGVGLQRDESGIEGQLG, KVYKLGVSRRSVKAT, KVYSIYTNKNFGCFDYNWCI, KYGENDLRFENITYLFGV, KYNHIYVYKSIRCVQGVLDG, KYNPTMSNYSGLLWKIGVGT, KYNWLNKVSTIGTSKGSSIG, KYTVEVNFLAFLRHIYCTSG, LAAEFTFMRPARGYFGNKVG, LACLIHS, LACPWLTLIGYVQIRCNFDG, LADWQMGVPRGLQVMVCTTL, LAFVANY, LAGSSVVKLYGPVLRFFSSL, LALFVSCICVIVSELFFTMN, LARFMANLTGNC, LARLYYHFLEVHYVLCIC, LARPHDNSGCCSSNCDLRSC, LARRRSTCDICWLSYKATDL, LARVFASTGSSCSRSMNAMN, LASNDFTDVLHWC, LASRSHKHINATLAHLNPLL, LAVSGKEHAK, LAVVDCGYM, LAWVLMHSAKLGLKKRQAWG, LAYQGSGLIQQLAGLKHTTV, LCAQGYDLFALCKVYWLREW, LCDSGWELMYKLCTDKDMIL, LCDVQNTNNW, LCEKYFLRRFYFMTTGLSGR, LCETYYHHTARGLHLASLVS, LCFFVERRLKGYDVGLSNLL, LCGATCLMFMLHVKCTSGFE, LCHRY, LCHWFL, LCISKKVMNFSNASHGGQQC, LCITPNLKSFFESYVRFSEL, LCLCVRFFKAFNRFNYRRFF, LCLCYNLMSLLLLHLCREGQ, LCLFLSQMFSNRYEIFPLFV, LCLVLWVSK, LCSIVWRGIRDAYGQRYYVV, LCTKGYWFKAPNYLLSKLCF, LCWPGTVDWFQGWRKAG, LDAFRRLLEGASRTKCTF, LDEFY, LDGFSSKILGMFEEAVVYRM, LDLFSRNSETRAKSDRVWWT, LDRFENINRL, LDSFATRGYSWSLGIIVMKI, LDSYVDFLTYFSQKGSRHHL, LEASESGIVEVPQPNYCITP, LECILADIASCIQPRAYCIS, LEGALRQDSCHKVPKLGQPV, LEKELRLCSKAWLSSQISIV, LELLRTERKRMKCLKPVLRV, LESSVMLLKRRIILVLCLHG, LETLVKPLELGSYFDFCCWA, LEVWSRRYWCHRLFNSIAMM, LFAIDNWVVKDSLVVWCEGR, LFCSYNRRGAHLAGCAR, LFCVPWVVISPHHSIHRIWV, LFDHYWLGSWIVENSYPSGE, LFFYNWVICRSNRYHGL, LFGFQNDCYMDNRYW, LFGYDSISLINRGCVGGFNV, LFHNCHGFFHTNNVPFVRWP, LFLGLVLAHPPDRVRLSTVL, LFLMWRTYYVNILESSCVVC, LFLWKTTMTPGLHRSSVVGR, LFLYQLLSGHC

Amyloid nucleation score, 0.06 ± 0.64:
LAGSCMGLMCWVVDARAVGR

Amyloid nucleation score, -0.126 ± 0.88:
LFEDKCGNPWRNY

Amyloid nucleation score, 1.52 ± 0.063:
KMILRFFSI

Amyloid nucleation score, 0.887 ± 0.19:
KTLIVVAVSFIWL

Amyloid nucleation score, 1.66 ± 0.074:
KVSWMFYRCSDNNN

Amyloid nucleation score, 1.02 ± 0.14:
KGVGHSTLTIIFLLSALRFS

Amyloid nucleation score, 0.082 ± 0.45:
KNFQPKTS

Amyloid nucleation score, -0.372 ± 0.8:
LEFRNHPMSYYTLVGQCVRK

Amyloid nucleation score, 1.97 ± 0.1:
LAFFTHNIYF

Amyloid nucleation score, 0.605 ± 0.38:
KWDSKFRYLADGHNQLPC

Amyloid nucleation score, 0.033 ± 0.44:
KYYLALIYSKLRMIVSCFGF

Amyloid nucleation score, 1.33 ± 0.14:
KVRQARGILASEGIGQETVG

Amyloid nucleation score, 1.82 ± 0.083:
KLKVVVIKNICFG

Amyloid nucleation score, 1.17 ± 0.14:
KLLSTRRCFRCLLGQWSLFM

Amyloid nucleation score, 0.969 ± 0.16:
LCIFKVLF

Amyloid nucleation score, 0.969 ± 0.19:
KPTWQKEFVR

Amyloid nucleation score, 0.6 ± 0.25:
KFIVVGYLGTIPTHPVGVPY

Amyloid nucleation score, 2.66 ± 0.076:
KIWNCVYVGWNIVVNNIKGL
